This is an account of results in the nanobody polyreactivity screen of Harvey et al. (2022).

This series in a line: yeast display, Sf9 membrane polyspecificity reagent, FACS + sequencing; frameworks hold sequencing errors. In a few lines:
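Synthetic nanobody libraries on Saccharomyces cerevisiae BJ5465 were galactose-induced for 36–48 hours, stained 1 hour at 4 °C with 10% biotinylated, detergent-solubilized Sf9 membrane reagent and enriched on streptavidin microbeads. FACS then separated cells into low and high (top ~1%) gates by anti-HA (expression) and streptavidin (reagent binding) fluorescence. Genes were colony-PCR amplified, MiSeq 2 × 250 sequenced and CDR-length filtered. A clone's polyreactivity label is that of its gate of origin.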
As for “QVQLLESGGGLVQAGGSLRLRCASSGRIFVYYAMGWYRQAPGKERELVAANRWTGGSTYYADSVKGRFTISRDNAKNTVYLQMNSLKPEDTAVYYCATVNRYGHFNYWGQGTQVTVSS”, the “polyreactivity (PSR sort gate)” value is on record as “high polyreactivity”.
For the sequence “QVQLVESGGGLVQAGGSLRLSCAASGYTFPYAMGWYRQAPGKERELVAAISSRGSSTYYADSVKGRFTISRDNAKNTVYLQINSLKPEDTAVYYCAAKHFVKVDYWGQGTQVTVSS”, the “polyreactivity (PSR sort gate)” value was “high polyreactivity”.
In the case of “QVQLVESGGGLGQAGGSLRLSCAASGFIFTFYAMGWNRQAPGKERELVAAISWSGGSTYYADSVKGRFTISHDNAKNTVYLQMNSLKPEDTAVYSCNAQHARGYYYWGQGTQVTVSS” it was “low polyreactivity”; in that of “QDQLVESGGGLVQAGGSLRLSCSAYGSILKNNAMGLYIQSPGQERELVAAISSDGSTNYADSVKGRFRISRDNAKNTVYLQMNSLKPEDTAVYYCAAHDNGAWVRMDYWGQGTQVTVSS”, “low polyreactivity”.
In the case of “QVQLVESGGGLVQAGGSLRLSCAASGNTFEYNAMGWYRQAPGKEREFVAAIDFSDGSTYYADSVKGRFTISRDNAKNTVYLQMNSLKPEDTAVYYCAGDYYSYFGNYYYWGQGTQVTVSS” it was “high polyreactivity”; in that of “QVQLVESGGGLVQAGGSLRLSCAASGIIFPVYAMGWFRQAPGKERELVATIDSGGGTYYADSVKGRFTISRDNANNTVYLQMNSLKPEDTAVYYCNASHPPKAELAHWGQGTQVTVSS”, “low polyreactivity”.
For the sequence “QVQLVESGGGLVQAGGSLRLSCAASGRIVHQYAMGWNRQAPGKERELVAAITTRGTSTYYADSVKGRFTISRDNAKNTVYLQMNSLKPEDTAVYYCAAKFFGSVGHVAGDYWGQGTLVTVSS”, the “polyreactivity (PSR sort gate)” value is on record as “high polyreactivity”.
On to “QVHLVESGGGLVQAGGSLRLSCAASGSIFDYYDMGWYRQAPGKERELVASITWSGGRTSYADSVKGRFTISRDNAKNTVYLQMNSLKPEDNAVYYCNARGFRGEYDYWVQGTQVTVSS”, for which the “polyreactivity (PSR sort gate)” value was “high polyreactivity”.
In the case of “QVQLVESGGGLVQAGGSLRLSCAASGRIFGVYGMGWYRQAPGKERELVAAITISGRTNYADSVKGRFTISRDNAKNTVYLQMNSLKPEDTAVYYCAAEKRKLFQGVARYRYEYWGQGTQVTVSS” it was “low polyreactivity”; in that of “QVQLVESGGGLVQAGGSLRLSLAASGRTFEYYAMGWYRQAPGKERELVAAITSGGITYYADSVKGRFTISRDNAKNTVYLQMNSLKPEDTAVYYCNDRHRYYRYGYWGQGSQVTVSS”, “high polyreactivity”.
For the sequence “QVQLVESGGGLVQAGGSLRLSCAASGSIFPTNAMGWYRQAPGKERELVAAISSRDGSTYYADSVKGRFTISRDNAKNTVYLQMNSLKPEDTAVYYCNTDHDPIYFYITRHDSWGQGTQVTVSS”, the “polyreactivity (PSR sort gate)” value is listed as “low polyreactivity”.
In the case of “QVPLVESGGGLVQAGGSLRLSCAASGGIFRLYAMGWYRLAPGKEREVVASLSGDGDSTYYADSVQGRFTISRDNAKNTVYLQMNSLKPEDTAVYYCARQPYYFLSRPPYFRKYYYWGQGTQVTVSS” it was “high polyreactivity”; in that of “QVQHVESGGGLVQAGVSLRLSCAASGSTFRRYAMGWYRQSRGKERELVATISSRGGSTNYADSVKGRFTISRDNAKNTVYLQMNSLNPEDTSFYYCARSTSLVTKDDYWGQGTQVTVSS”, “high polyreactivity”; in that of “QVQLVESGGGLVQAGGTLRLTCAASGRTFYRYVMGWYRHAPVKERELFAAINWSGGSTYYADSVKGRFTISRDNAKNTVYLQMNSLKPEDTAVYYCAADLYTLRYGYRYEYWGQGTQVTVSS”, “high polyreactivity”.
The entry for “QVQLVSSGGGLVQAGGSLSLSCAASGRTFCINAMGWYRQAPGKERELVAAIRTGGSTYYADSVKGRFTISRDNAKNTVYLQMNSLKPEDTAVYYCAAVLYHNRKTEYTYGYWGQGTQVTVSS” is “high polyreactivity”; for “QVQLVESGGGLVQAGGSLRLSCAASGRTLPYYMRWYRQAPGKERELVAAITNGDSTYYADSVKGRFTISRDNAQNTVYLQMNSLKPEDTAVYDCAARQKVPPQYWGQGTQVTVSS” it is “high polyreactivity”.
In the case of “QVQLVESGGGLVQAGGSLRLSCAASGYIFVVNAMGWYRQAPGKERELVAAIDWGGGSTYADSVKGRFTISRDNAKNTVYLQMNSLKPEDTAVYYCAADLWPYPNDYWGQGTQVTVSS” it was “low polyreactivity”.
Take “QVQLVESGGGLVQAGGSLRLSCAASGSIFGINAMGWYRQAPWKERELVAAITSDGSTYYADSVKGRFTISRDNAKNTVYLQMNSLNPEDTAVYYCAAYSWYYTSRYDYWGQGTQVTVSS”: the “polyreactivity (PSR sort gate)” value is “low polyreactivity”.
For “QVQLVESGGGLVQAGGSLRLICAASGRTFKYYAMGWYRPAPGKERELVATISFRGGSTYYADSVKGRFTISRDNAKNTVYLQMNSLKPEDTSVYYCAATTPYYTPRRRNDYWGQGTQVTVSS”, the “polyreactivity (PSR sort gate)” value was “high polyreactivity”.
With “QVQLVESGGGLVQAGGSLRLSCAASGSTFYTNAMGWYRQAPGKEREFVAAISWSGSSTYADSVKGRFTISRDNAKNTVYLQMNSLKPEDTAVYYCSADWFKLRTDYYWGQGTQVTVSS”, the “polyreactivity (PSR sort gate)” value is “low polyreactivity”.
As to “QVQLVESGGGLVQAGGSLRLSCAASGIIFAFSAMGWYRQAPGKERELVAGITSGGDTYYADSVKGRFTISRDNAKNTVYLQMNSLKPEDTAVYYCAADVQYPNRAGWLYWYATNFDYWGQGTQVTVSS”, the “polyreactivity (PSR sort gate)” value is reported as “high polyreactivity”.
Regarding “QFKLVESGGVLVKEGGRLRLICAASGSTFDENDMGRYRQAPGKEMEIVAVIYIGTSTNYADSVKGRFTISRDNAKNTVYLQMNSLKPEDTAVYYCAADVPGSYLVAIVGNAFNYWGQGTQVTVSS”, the “polyreactivity (PSR sort gate)” value is listed as “low polyreactivity”.
The entry for “QVQLVESGGGLVQAGGSLRLSCAASGGIFIKYAIGWYRPAPGKERELVAAITYSGGSTYYADSVKGRFTISRDNAKNTVYLQMNCLKPEDTAVYYCAADTLRQYDYEYWGQGTQVTVSS” is “high polyreactivity”.
As to “QVQLVESGGGLVQAGGSLRLSCAASGYTRFYAMGWYRHAPGKERELVAAISSSGGTTYYADSVKGRLTISRDNAKNTVYLQMNSLKPDDSAVYYCAKYVSYCRTLYEYWGQGTQVTVSS”, the “polyreactivity (PSR sort gate)” value is listed as “high polyreactivity”.
In the case of “QVQLVESGGGLVQAGGSLRLSCAASGSTFPGYAMGWYRQAPGKERELVAAITAGGGSTYYADSVKGRFTISRDNAKNSVYLLMKSLKPEDTAVYYCAKRYSYYGWRRYDYWGQGTQVTVSS” it was “high polyreactivity”; in that of “QVQLVESGGGLVQAGGSLRLSCAASGSTFIYNAMGWYRLAPGKEREFVAGITGSGGSTYYADSVKGRFTISRDNAKNTVYLQMNSLKPEDTAVNYCNADSPVVNYADLDYWGQGTQVSVSS”, “low polyreactivity”.
The entry for “QLQLVESGGGLVQAGGSLRLSCAASGLTFYSYPMGWYRQARGKERELVATIRSSGGSSYYADSVKGRFTISRDNAKNTVYLQMNSLKPEDTAVYYCAARWGPYAFTYVRTYDYWGHGTQVTVSS” is “low polyreactivity”; for “QVQLVESVGGLVQAGGSLRLSCAASGSIFGPNAMGWYRQAPGKERELVAAISLSTGSTYYADSVKGRFTISRDTAKNTVYLQMNSLKPEDTAVYYCAAYYVTPIYYYWGQGTQVTVSS” it is “low polyreactivity”; for “QVQLVESGGGLVQAGGSLRLSSAASGFILRTNAMGWYRQAPGKERELVAAISVSGGRTYYADSVKGRFTISRDNAKNTVYLQMNSLKPEDTAVDYCAARDSTKLLSGYTHYYWGQGTQVTVSS” it is “high polyreactivity”.
On to “QVQLVESGGGLVQAGGSLRLSCAASGRIVWFYTMGWYRQAPGKERELVAAISDSAGSTYYADSVKGRFTISRDNAKNTVYLQMNSLKPEDTAVYYCAADGWWQYDYWGQGTQVTVSS”, for which the “polyreactivity (PSR sort gate)” value is “low polyreactivity”.
For “QVQLVESGGGLVQAGGSLRLSCAASGNIYNNYDMGWYRPAPGKERDLVARIDSGGSTNYADSVKGRFTISRDNAKNTVYLQMNCLKPEDTAVYYCAADFLSHWLLEMDYWGQGTQVTVSS”, the “polyreactivity (PSR sort gate)” value was “low polyreactivity”.
As to “QVQLVESGGGLVQAGGSLRLSCAASGSTFNLYAMGWYRPAPGKERELVAAISRGGSTYYADSVKGRFTISRDNAKNTVYLQMNSLKPEDTAVYYCAARSWYDRYPYYSWGQGTQVTVSS”, the “polyreactivity (PSR sort gate)” value was “high polyreactivity”.
The entry for “QVQLVESGGCLVQSGGSLRLSCAASGIILYYYAMGWYRQAPGKERELVAAISSGGNTYYADSVKGRFTISRDNAKNTVYLQMNSLKPEDPAVYFCASGTVIGGEYDYWGQGTQVTVSS” is “low polyreactivity”.
In the case of “QVQLVESGGGLVQAGGSLRLICAASGFTFRSYAMGWYRQAPGKERELVAAITSTGGRTYYADSVKGRFTISRDNAKNTVYLQMNSLKPEDTAVYYCAAGRKHYAPVHFGYWGQGTQVTVSS”, the “polyreactivity (PSR sort gate)” value is given as “high polyreactivity”.
In the case of “QVQLEESGGGLVQAGGSLRLSCAASGRIFWANAMGWSRQAPGKERELVAAINRRTGITYYADSVKGRFTISRDNAKNTVYLQMNSLKPEDTAVYYCNAGSSPIRQYYGQVWKKGGYWGQGTQVTVSS” it was “high polyreactivity”; in that of “QVQLVESGGGLVQAGGSLRLSCAASGRIFLYYAMGWYRQAPGKERELVAAITWSGGSTYYADSVKGRFTISRDNAKNTVYLQMNSLKPEDTAVYYCAADYLYGQTIYQVPSHYYYWGQGTQVTVSS”, “low polyreactivity”; in that of “QVQLVESGGGLVQAGGSLRLSCAASGSTFGRYVMGWYRPAPGKERELVAAISKNAGSTYYADSVKGRFTISRDNAKNTVYLQMNSLKPEDTAVYYCNAQSFREYGYWGQGTQVTVSS”, “high polyreactivity”.
In the case of “QVQLVESGGGLVQAGGSLRLSCAASVSIFRVNTMGWYRQAPGKERELVATISSGARTNYADSVKGRFSISRDNAKNTVYLQMNSLKPEDTAVYYCATRYRRVYTWYDYWGQGTQVTVSS”, the “polyreactivity (PSR sort gate)” value was “high polyreactivity”.
The entry for “QVQLVESGGGLVQAGGSLRLSCAASGSTFGFNAMGWYRQAPGKERELVASITSGDSTYYADSVKGRFTISRDNAKNTVYLQMNSLKPEDTAVYYCAKVGGGGQAGDNPILSDYWGQGTQVTVSS” is “low polyreactivity”; for “QVPLVESGGGLVQAGGSLRISCAASGSILQYYALGWYRQAPGKERELVASISSSSGSTYYADSVKGRFTISRDNAKNTVYLQMNSLKPEDTAVYYCNARGWTLAADFGYWGQATQVTVSS” it is “low polyreactivity”; for “QVQLVESGGGLVQAGGSLRLSCAASGRTFKSYAMGWYRQAPGKERELVAAISKRGGSTYYADSVKGRFTISRDNAKNTVYLQMNSLKPEDTAVYYCAADARYRSYSLLVRPGRYYYWGQGTQVTVSS” it is “high polyreactivity”.
